Measurements taken from patent publication US5451411A, “Methods and compositions for the oral delivery of therapeutic agents” (University of Washington, priority 1993, dated 1995).

Experiments:
[1] = system: mouse anti-TGF-β1 monoclonal antibody, 1D11; experiment: ELISA measured binding activity (immunoreactivity) of TGF-β1; conditions: solution without alginate, up to 0.14% w/v additive
Description: The ability of released TGF-β1 from both untreated and acid treated beads (as described above) to be recognized (bound) by a monoclonal antibody was assayed by ELISA as follows. An enzyme linked immunosorbent assay (ELISA) was used to quantitate the amount of immunoreactive TGF-β1 released from the untreated (PBS) and acid treated (HCl) alginate beads. The ELISA was based on the ability of a mouse anti-TGF-β1 monoclonal antibody, 1D11 (Bristol-Myers Squibb, Seattle, WA), to bind to the TGF-β1 molecule. When the 1D11 antibody was coated on 96-well immunoassay plates it captured TGF-β1 from the applied sample and standard solutions. Captured TGF-β1 was then bound by biotinylated 1D11 antibody which in turn was bound by a horseradish peroxidase/avidin D conjugate (Vector Labs cat #A-2004). A color reaction occurred by adding a chromophore/substrate solution of 3,3',5,5'-tetramethylbenzidine in CPB containing hydrogen peroxide. The reaction was stopped with the addition of 1 N sulfuric acid and the A450 was determined by a plate reader. Concentrations of the unknown samples were quantified relative to a TGF-β1 standard curve run on the same plate.
The immunoreactivity of TGF-β1 in solution in the presence of anionic amino acids, polyanions and polycations was studied using the ELISA procedure described in Example 2. To 1 mg/mL solutions of TGF-β1 in 5 mM HCl was added from 0 to 0.14%(w/v) of glutamic acid, aspartic acid, poly-L-aspartic acid (PLAA, Mw=13 kDa), sodium carboxymethyl cellulose (Na CMC, high viscosity), or polyacrylic acid (PAA, 2, 90 or 750 kDa). The reactivity of the TGF-β1 was then determined by the ELISA procedure, as described in Example 2.
Next, the ability of the additives to […] was investigated. Alginate solutions were prepared in accordance with the procedure of Example 1, incorporating 50 μg of TGF-β1, 0-0.15% (w/v) of sodium alginate and 0.1-1.0 mg (up to 0.125% w/v) of PAA (750 kDa), PLAA (13 kDa), NaCMC high viscosity or glutamic acid. The immunoreactivity of TGF-β1 was determined by ELISA as described in Example 2.
Alginate beads were prepared according to the procedure of Example 1 incorporating 50 μg TGF-β1 and 0.1-1.0 mg of additives. […] In addition, Poly-L-Lysine (PLL;123 kDa) was incorporated as a potential polycationic competitor. The additives were incorporated at an alginate:additive w/w ratio of from 75:10 to 75:1 as indicated below in Table 3.
To further assess the effect of amount of PAA incorporation on immunoreactivity of released TGF-β1, alginate beads were prepared by incubating TGF-β1 and PAA (90 kDa) for either 5 or 60 minutes (see FIG. 7) in w/w ratios of 75:1, 75:6 and 75:10, followed by dilution, addition of alginate, and bead formation in 1% CaCl2. The beads were acid treated in 0.1 N HCl at 37° C. for 30 minutes and then incubated at 37° C. in PBS, pH 7.4.

gastrointestinal tract = conditions: sequential chemotherapeutic protocols; cited from earlier work
[2] = system: cells of epithelial origin, including human and rodent derived intestinal cells; conditions: cited from earlier work
[3] = format: physicochemical
Description: Beads prepared in accordance with the procedure of Example 1 and containing 50 μg of ^125 I-TGF-β1 in 3.75-7.5 mg (original weight of alginate) were transferred to 15.0 mL polypropylene tubes containing 13.0 mL of PBS or of 0.1 N HCl at 37° C. In some cases, 1% BSA was added to the release media. The polypropylene tubes were gently shaken using a orbital shaker (200 rotations/minutes). At selected times, 100 μL aliquots were taken and counted for radioactivity. Care was taken so that aliquots contained no beads or bead fragments. The cumulative ^125 I-TGF-β1 released from the beads was calculated after correcting for volume changes. After 24 hours, the beads in 0.1 N HCl were transferred to PBS.
Alginate beads containing TGF-β1 and 90 kDa PAA (75:10 w/w in alginate:PAA) were prepared following the procedure of Example 1, and were acid treated for 30 minutes at 37° C. in 0.1 N HCl, as described in Example 2. The beads were then placed in PBS, pH 7.4, and the immunoreactivity of released TGF-β1 was determined by ^125 I radiolabel and ELISA, as described in Example 2. In addition, a growth inhibitory assay (GIA) was used to determine the bioactivity of the TGF-β1. The GIA measures the ability of TGF-β1 to inhibit the growth of mink lung epithelial cells (ATCC #CCL64) (T. Ikedaet al., "Human Transforming Growth Factor Type β2: Production By a Prostatic Adenocarcinoma Cell Line, Purification and Initial Characterization," Biochemistry 26:2406-2410 (1987)). The activity of the growth factor was determined by the inhibitory response of the cells to different concentrations of TGF-β1. Cell viability was based on the enzymatic cleavage by metabolically active cells of a tetrazolium salt into an orange/red formazan product. Prior to the assay cells were trypsinized and plated in a 96-well flat bottomed plate (Costar) at a concentration of 1000 cells/well. After allowing the cells to attach, samples containing the TGF-β1 and a reference standard were diluted to concentrations ranging from 1000 to 1.95 pg/ml and added to the wells. The cells were incubated for four days after which time a 100 μL solution containing 25 μg of sodium 3"-[1-(phenylamino)-carbonyl]-3,4-tetrazolium-bis(4-methoxy-6-nitro) benzene sulfonic acid hydrate (Diagnostic Chemicals, Ltd.) and 5 mM phenazine methosulfate (Aldrich) in media was added to each well. The cells were then incubated for 7 hours and the plates read on a microplate reader at an absorbance of 450 nm with a 630 nm reference filter. The specific activity of a sample was calculated relative to the reference material.

[4] = system: mouse anti-Oncostatin-M antibody, 11R2; experiment: ELISA of immunoreactive Oncostatin-M released from alginate beads; format: binding; conditions: PBS
Description: Following the procedure of Example 1, alginate beads were prepared from 800 μl of an aqueous solution containing 25 μg of Oncostatin-M (site source) and 3750 μg of sodium alginate (Sigma, Low Viscosity). To a portion of the solution was added 300 μg of PAA (Jannsen, 90 kDa) prior to bead formation. Samples of the beads, both with and without added PAA, were subject to acid treatment by incubating the beads in 0.1 N HCl at 37° C. for 30 minutes, as described in Example 2. The beads were then placed in PBS, and the percentage amount of immunoreactive Oncostatin-M was determined by ELISA assay following the procedure of Example 2 using a mouse anti-Oncostatin-M antibody, 11R2 (Bristol-Myers Squibb, Seattle, WA) as the capture antibody and biotinylated 1R10 mouse anti-Oncostatin-M antibody (Bristol-Myers Squibb, Seattle, WA) as the probe, followed by horseradish peroxidase/avidin D. The results are shown in FIG. 8, in which (.quadrature.) represents acid treated beads containing PAA, represents bead containing PAA which were not acid treated, represents beads without PAA which were acid treated, and represents beads without PAA which were not acid treated.

[5] = system: mouse antiamphiregulin monoclonal antibody, 6R1C1; experiment: ELISA of immunoreactive Amphiregulin released from alginate beads; format: binding; conditions: PBS
Description: The procedure of Example 10 was repeated substituting 25 μg of Amphiregulin for the Oncostatin-M of Example 11 and using a mouse antiamphiregulin monoclonal antibody, 6R1C1 (Bristol-Myers Squibb, Seattle, WA) as the capture antibody, followed by a goat anti-mouse horseradish peroxidase probe (Southern Biotech). The results are shown in FIG. 9 in which the symbols have the meanings of FIG. 8.

N[C@@H](CC(=O)O)C(=O)O [aspartic acid, L-aspartic acid, reference compound]
Interference of additive with ELISA measured binding activity of TGF-β1 [1]: interfered to a lesser extent

Nc1ccn([C@@H]2O[C@H](CO)[C@@H](O)[C@@H]2O)c(=O)n1 [cytosine arabinoside]
Gastrointestinal toxic alterations (gastrointestinal tract): surface and glandular epithelial atypia, immaturity and necrosis

O=c1[nH]c(=O)n([C@H]2C[C@H](O)[C@@H](CO)O2)cc1F [floxuridine]
Gastrointestinal toxic alterations (gastrointestinal tract): surface and glandular epithelial atypia, immaturity and necrosis

N[C@@H](CCC(=O)O)C(=O)O [glutamic acid, L-glutamic acid, reference compound]
Interference of additive with ELISA measured binding activity of TGF-β1 [1]: interfered to a lesser extent

CO[C@@]12[C@H](COC(N)=O)C3=C(C(=O)C(C)=C(N)C3=O)N1C[C@@H]1N[C@@H]12 [mitomycinC]
Gastrointestinal toxic alterations (gastrointestinal tract): surface and glandular epithelial atypia, immaturity and necrosis

TGF-β
Growth inhibition [2]: inhibit the growth of many cells of epithelial origin

^125 I-TGF-β1: TGF-β1 radioiodinated by a modified chloramine-T method
125I-TGF-β1 released in 0.1 N HCl ([3]; 0.1 N HCl, 24 hours, 37° C.): essentially no | Further 125I-TGF-β1 release ([3]; PBS, even after 72 hours): no further ^125 I-TGF-β1 was released | Lag period before release ([3]; PBS, pH 7.4, 37° C.): 4 h | Cumulative 125I-TGF-β1 released (plateau) ([3]; PBS, pH 7.4, 37° C., after 20 hours, no acid treatment, no PAA): 81% | 125I-TGF-β1 released after transfer from 0.1 N HCl to PBS ([3]; transferred to PBS after 24 hours in 0.1 N HCl, in 2.5 hours): 100%

B1: Oncostatin-M: 25 μg of Oncostatin-M encapsulated in alginate beads with or without PAA (protein, UniProt P13725 26-221, looked up)
Oncostatin-M: AAIGSCSKEYRVLLGQLQKQTDLMQDTSRLLDPYIRIQGLDVPKLREHCRERPGAFPSEETLRGLGRRGFLQTLNATLGCVLHRLADLEQRLPKAQDLERSGLNIEDLEKLQMARPNILGLRNNIYCMAQLLDNSDTAEPTKAGRGASQPPTPTPASDAFQRKLEGCRFLHGYHRFMHSVGRVFSKWGESPNRSRR
modifications: alginate bead encapsulation
notes: 25 μg of Oncostatin-M encapsulated in alginate beads with or without PAA
Immunoreactive Oncostatin-M released, acid treated beads containing PAA ([4]; PAA 90 kDa): 85% | Immunoreactive Oncostatin-M released, non acid treated beads containing PAA ([4]; PAA 90 kDa): 38% | Immunoreactive Oncostatin-M released, "non acid treated beads with PAA" (second value) [4]: 20% | Immunoreactive Oncostatin-M released, acid treated beads without PAA [4]: 18%

B2: Amphiregulin: 25 μg of Amphiregulin encapsulated in alginate beads with or without PAA (protein, UniProt P15514 101-187, looked up)
Amphiregulin: SVRVEQVVKPPQNKTESENTSDKPKRKKKGGKNGKNRRNRKKKNPCNAEFQNFCIHGECKYIEHLEAVTCKCQQEYFGERCGEKSMK
modifications: encapsulated in alginate beads
notes: 25 μg of Amphiregulin encapsulated in alginate beads with or without PAA
Immunoreactive Amphiregulin released, acid treated beads containing PAA [5]: 67% | Immunoreactive Amphiregulin released, acid treated beads without PAA [5]: 31% | Immunoreactive Amphiregulin released, non acid treated beads containing PAA [5]: 52% | Immunoreactive Amphiregulin released, non acid treated beads without PAA [5]: 22%
